Assay results reported in publication PMC9333443, “Structural insights into Pot1-ssDNA, Pot1-Tpz1 and Tpz1-Ccq1 Interactions within fission yeast shelterin complex” (PLoS Genetics, 2022).

What was measured:
Pot1DBD [1] = target: T1, Pot1DBD (Schizosaccharomyces pombe, UniProt O13988 2-339); test: gel filtration; 1:1 stoichiometry; ITC: 25 mM Tris-HCl pH 8.0, 150 mM NaCl, 20 C; gel filtration (complex purification): 25 mM Tris-HCl pH 8.0, 150 mM NaCl, 5 mM DTT; conditions: protein: recombinant; tags: His6-SUMO (N-terminal, removed with ULP1); single strand
T1 sequence: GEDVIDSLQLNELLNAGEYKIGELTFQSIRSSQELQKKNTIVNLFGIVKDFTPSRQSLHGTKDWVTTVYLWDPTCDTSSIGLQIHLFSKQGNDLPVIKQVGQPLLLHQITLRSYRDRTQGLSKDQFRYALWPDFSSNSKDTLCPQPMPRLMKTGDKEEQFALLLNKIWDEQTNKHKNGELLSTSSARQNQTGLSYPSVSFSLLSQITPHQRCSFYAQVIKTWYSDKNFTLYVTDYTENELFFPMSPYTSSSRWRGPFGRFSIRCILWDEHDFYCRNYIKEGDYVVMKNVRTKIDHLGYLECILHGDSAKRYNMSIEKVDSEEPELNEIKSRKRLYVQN

Pot1DBD [2] = target: T1, Pot1DBD; test: ITC; Kd only in figure; ITC: 25 mM Tris-HCl pH 8.0, 150 mM NaCl, 20 C; gel filtration (complex purification): 25 mM Tris-HCl pH 8.0, 150 mM NaCl, 5 mM DTT; conditions: protein: recombinant; tags: His6-SUMO (N-terminal, removed with ULP1); single strand
Pot1 full length;Tpz1PIM = target: T2, Pot1 full length;Tpz1PIM (Schizosaccharomyces …, UniProt O13988;O14246 1-555;164-240, |); test: complex reconstitution; stable complex after mixing with Tel18; ITC: 25 mM Tris-HCl pH 8.0, 150 mM NaCl, 20 C; gel filtration (complex purification): 25 mM Tris-HCl pH 8.0, 150 mM NaCl, 5 mM DTT; conditions: protein: recombinant;recombinant, tags: His6-SUMO/GST system, co-expressed with Tpz1PIM;His6-SUMO/GST system, copies: 1;1, single strand
T2 sequence 1: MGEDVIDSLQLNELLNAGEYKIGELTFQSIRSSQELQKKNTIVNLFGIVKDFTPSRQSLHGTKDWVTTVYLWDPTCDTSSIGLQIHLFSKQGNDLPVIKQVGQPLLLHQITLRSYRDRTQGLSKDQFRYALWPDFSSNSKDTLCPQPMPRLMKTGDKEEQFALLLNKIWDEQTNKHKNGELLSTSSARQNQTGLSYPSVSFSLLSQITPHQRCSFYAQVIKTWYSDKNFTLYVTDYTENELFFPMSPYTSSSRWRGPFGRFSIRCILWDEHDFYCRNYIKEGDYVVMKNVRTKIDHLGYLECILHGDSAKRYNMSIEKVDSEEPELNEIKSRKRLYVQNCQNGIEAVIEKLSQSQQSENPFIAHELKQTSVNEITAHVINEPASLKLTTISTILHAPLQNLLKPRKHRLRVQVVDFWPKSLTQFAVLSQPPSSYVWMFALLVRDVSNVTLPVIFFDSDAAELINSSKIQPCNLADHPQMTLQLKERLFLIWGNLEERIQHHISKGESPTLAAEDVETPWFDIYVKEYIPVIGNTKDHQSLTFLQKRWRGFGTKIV
T2 sequence 2: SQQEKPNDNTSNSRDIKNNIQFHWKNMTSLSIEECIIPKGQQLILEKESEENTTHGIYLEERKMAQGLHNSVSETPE

[3] = target: T3, Ccq1TAD (Ccq1 123-439 with deletion of residues 199-215), purified (S. pombe, UniProt Q10432 123-439, deletion of residues 199–215); test: crystal structure; Tpz1CBM-Ccq1TAD complex, SAD, 2.4 Å; sitting drop at 4°C, 15% PEG4000, 200 mM potassium chloride, 50 mM magnesium chloride, 50 mM Tris-HCl pH 7.8; conditions: both partners purified
T3 construct: Two copies stand in the 2:2 complex with Tpz1CBM; not shown: His6, N-terminal, cleaved; SUMO, N-terminal, cleaved
T3 sequence (looked up): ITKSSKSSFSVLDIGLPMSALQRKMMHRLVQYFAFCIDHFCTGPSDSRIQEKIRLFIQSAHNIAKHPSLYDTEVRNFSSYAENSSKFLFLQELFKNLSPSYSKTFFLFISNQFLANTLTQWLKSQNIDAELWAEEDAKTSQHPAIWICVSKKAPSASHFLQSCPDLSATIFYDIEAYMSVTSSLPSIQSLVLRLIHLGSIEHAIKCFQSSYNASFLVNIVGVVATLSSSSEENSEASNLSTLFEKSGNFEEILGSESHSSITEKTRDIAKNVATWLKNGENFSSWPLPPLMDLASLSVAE

[4] = target: T4, Ccq1 (residues 123-439), without the deletion (S. pombe, UniProt Q10432 123-439); test: SEC; co-expressed and co-purified complexes on gel filtration (calibrated for Tpz1CBM-Ccq1TAD); 25 mM Tris-HCl pH 8.0, 150 mM NaCl, 5 mM dithiothreitol; conditions: both partners purified
T4 construct: The methods describe only the deleted form; this undeleted form gave crystals that diffracted to about 4.0 Å; also called N-terminal region of Ccq1
T4 sequence (looked up): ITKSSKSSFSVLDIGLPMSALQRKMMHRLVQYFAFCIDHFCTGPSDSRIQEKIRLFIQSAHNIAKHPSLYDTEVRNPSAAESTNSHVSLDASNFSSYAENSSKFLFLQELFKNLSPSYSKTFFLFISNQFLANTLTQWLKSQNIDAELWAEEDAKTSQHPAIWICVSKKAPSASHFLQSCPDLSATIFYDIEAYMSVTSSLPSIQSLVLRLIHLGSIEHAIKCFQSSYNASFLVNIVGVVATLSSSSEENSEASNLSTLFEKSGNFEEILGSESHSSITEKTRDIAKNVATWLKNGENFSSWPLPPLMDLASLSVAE

## GGTTACAGGGTTACGGT (ssDNA) [Tel17]
Pot1DBD [1]
  binding result: binds

## GGTTACAGGGGTTACGGT (ssDNA) [Tel18]
Pot1DBD [2]
  binding result: binds
Pot1 full length;Tpz1PIM
  binding result: binds

## EQIELEYKRKPIPDYDFMKGLETTLQELYVEHQSKKRRLELFQLTN (domain or fragment, S. pombe, UniProt O14246 425-470, looked up, not shown: GST, N-terminal, cleaved) [Tpz1CBM (Tpz1 425-470), purified]
[3]
  stoichiometry N: 1 Tpz1CBM per Ccq1TAD (printed as 2:2)
[4]
  binding result: binds

## GGTTACGGTTACGGT (ssDNA) [Tel15]
Pot1DBD [2]
  binding result: binds
